According to article PMC8178172 (Structure (London, England : 1993), 2021):

Target: human PACRG full-length short isoform (PACRG^FL, 257 a.a.) (human, UniProt Q96M98-2 1-257)
Assay: cross-linking

- binding result: binds
B1: human MEIG1 (His6 tag cleaved) (natural protein)
chain: MASSDVKPKSVSHAKKWSEEIENLYRFQQAGYRDETEYRQVKQVSMVDRWPETGYVKKLQRRDNTFYYYNKQRECDDKEVHKVKIYAY
